According to the Immune Epitope Database (IEDB):
pIC50: −log10 of the molar value. One block for each sequence: values may come before it.

Columns and labels:
HLA-B*39:06 = assay: IEDB peptide-MHC binding, purified MHC/competitive/radioactivity; ≥ and ≤ were set here for values at or beyond the usual limits of such assays
HLA-B*38:01 = assay: as above
[1] = source organism: Human immunodeficiency virus 1
[2] = source organism: Simian immunodeficiency virus

Sequence: ARFTGIKTA
pIC50 (HLA-B*39:06; source organism: Homo sapiens): 8.22

Sequence: NRYDGIYKV
pIC50 (HLA-B*39:06; source organism: Homo sapiens): 6.43

Sequence: INSEMFLRS
pIC50 (HLA-B*39:06; source organism: Mus musculus): ≤ 4.11

Sequence: WHLGQGVSI
pIC50 (HLA-B*38:01; [1]): 8.00

Sequence: IEHDVVMKA
pIC50 (HLA-B*39:06; source organism: Homo sapiens): 6.86

Sequence: NRVMLPKAA
pIC50 (HLA-B*39:06; source organism: Homo sapiens): 8.57

Sequence: THIQQDPAL
pIC50 (HLA-B*38:01; [2]): 6.83

Sequence: KTQKEYALF
pIC50 (HLA-B*38:01; [1]): 4.39

Sequence: DHQAAMQII
pIC50 (HLA-B*38:01; [2]): 6.90

Sequence: VPSLQYLAL
pIC50 (HLA-B*38:01; [2]): 5.82

Sequence: RHDITGFIL
pIC50 (HLA-B*38:01; source organism: Variola virus): 8.19

Sequence: KRHKEFALF
pIC50 (HLA-B*38:01; [1]): 5.96

Sequence: HRLEGLREA
pIC50 (HLA-B*39:06; source organism: Homo sapiens): 8.02

Sequence: NHLPRELIF
pIC50 (HLA-B*38:01; [2]): 5.95

Sequence: THTNGVRLL
pIC50 (HLA-B*38:01; [2]): 6.21

Sequence: ERFYGKYTA
pIC50 (HLA-B*39:06; source organism: Homo sapiens): 8.04

Sequence: GHQAAMQML
pIC50 (HLA-B*38:01; [1]): 5.99

Sequence: MHEDIISLW
pIC50 (HLA-B*38:01; [1]): 7.28

Sequence: FRYQGHVGA
pIC50 (HLA-B*39:06; source organism: Homo sapiens): 8.77

Sequence: ERMKLVVQA
pIC50 (HLA-B*39:06; source organism: Homo sapiens): 7.82

Sequence: DRFGLAESL
pIC50 (HLA-B*38:01; [2]): 7.52

Sequence: DHHLPPPAA
pIC50 (HLA-B*39:06; source organism: Homo sapiens): 7.14

Sequence: KMQKEHALF
pIC50 (HLA-B*38:01; [1]): 4.92

Sequence: GRSIAFHSA
pIC50 (HLA-B*39:06; source organism: Homo sapiens): 7.40

Sequence: YYDEKVVKL
pIC50 (HLA-B*39:06; source organism: Homo sapiens): 5.43

Sequence: FRQYTAFTL
pIC50 (HLA-B*38:01; [2]): 7.77

Sequence: WLFSNCRTL
pIC50 (HLA-B*38:01; [2]): 6.00

Sequence: IHGQANSDL
pIC50 (HLA-B*38:01; [2]): 5.63

Sequence: NETWYSADL
pIC50 (HLA-B*38:01; [2]): 5.41

Sequence: YKEPNSIIL
pIC50 (HLA-B*38:01; source organism: Variola virus): 5.33

Sequence: IHIPGDTLF
pIC50 (HLA-B*38:01; source organism: Vaccinia virus): 7.96

Further lines, results first:

pIC50 (HLA-B*39:06; source organism: Homo sapiens): 8.11
Sequence: LQHPFVRSA

pIC50 (HLA-B*39:06; source organism: Homo sapiens): 7.77
Sequence: YHDIKRITA

pIC50 (HLA-B*39:06; source organism: Homo sapiens): 7.82
Sequence: THNYGIGAA

pIC50 (HLA-B*39:06; source organism: Mus musculus): 5.66
Sequence: IHIDSTPFA

pIC50 (HLA-B*39:06; source organism: Homo sapiens): 4.55
Sequence: NHINVELSL

pIC50 (HLA-B*39:06; source organism: Homo sapiens): 6.35
Sequence: TRYQIPKEV

pIC50 (HLA-B*39:06; source organism: Homo sapiens): 6.45
Sequence: TFDVAPSRL

pIC50 (HLA-B*39:06; source organism: Mus musculus): 5.87
Sequence: YRFIKIPTH

pIC50 (HLA-B*39:06; source organism: Mus musculus): ≤ 4.12
Sequence: LVAEAFEHT

pIC50 (HLA-B*39:06; source organism: Mus musculus): 5.92
Sequence: EHTPGVHMA

pIC50 (HLA-B*39:06; source organism: Mus musculus): ≤ 4.11
Sequence: EAFEHTPGV

pIC50 (HLA-B*39:06; source organism: Mus musculus): 4.16
Sequence: TNVFLFLFA

pIC50 (HLA-B*39:06; source organism: Homo sapiens): 8.09
Sequence: SRYLGKITA

pIC50 (HLA-B*39:06; source organism: Homo sapiens): 7.96
Sequence: TQRLIRESA

pIC50 (HLA-B*39:06; source organism: Mus musculus): 4.92
Sequence: MALWMRFLP
